The target in this assay is SARS-CoV-2 receptor binding domain (RBD) (SARS-CoV-2, UniProt P0DTC2). The assay is described as follows: BLI. (In general: BLI is a label-free optical method that tracks binding on a fibre tip over time.)

This is an account of results in PMC7241105 (bioRxiv, 2020).

B1: CV5 (antibody, V domains shown)
VH: QVQLVQSGAEVKKPGASVKVTCKASGYTFTSYYLHWVRQAPGQGLEWMGIINPSGGTTSYAQKFQGRVTMTRDTSTSTVYMELSSLRSEDTAVYYCARAGRRYSSSDDGAFDIWGQGTMVTVSS
VL: not shown
As for B1, the binding result is reported as “binds”.

B2: CV43 (antibody, V domains shown)
VH: QVQLVESGGGVVQPGRSLRLSCAASGFTFSSYAMHWVRQAPGKGLEWVAVISYDGSNKYYADSVKGRFTISRDNSKNTLYLQMNSLRAEDTAVYYCARVTVVHFDYWGQGTLVTVSS
VL: NFMLTQPHSVSESPGKTVTISCTGSSGSIASNYVQWYQQRPGSAPTTVIYEDNQRPSGVPDRFSGSIDSSSNSASLTISGLKTEDEADYYCQSYDSSNWVFGGGTKLTVL
With B2, the binding result is “binds”.
